Target: UBE2A (UniProt P49459 1-152)
Experiment: ITC

B1: UBR4_(xtal) Ser4930Arg (domain or fragment)
chain: AIQHPGTQVLIGTDSIPNLHKLEQVSSDEGIGTLAENLLEALREHPDVNKKIDAARRETRAEKKRMAMAMRQKALGTLGMTTNEKGQVVTKTALLKQMEELIEEPGLTCCICREGYKFQPTKVLGIYTFTKRVALEEMENKPRKQQGYSTVSHFNIVHYDCHLAAVRLARGREEWESAALQNANTKCNGLLPVWGPHVPERAFATCLARHNTYLQECTGQREPTYQLNIHDIKLLFLRFAMEQSFSADTGGGGRESNIHLIPYIIHTVLYVLNTTRATSREEKNLQGFLEQPKEKWVESAFEVDGPYYFTVLALHILPPEQWRATRVEILRRLLVTSQARAVAPGGATRLTDKAVKDYSAYRSSLLFWALVDLIYNMFKKVPTSNTEGGWSCSLAEYIRHNDMPIYEAADKALKTFQEEFMPVETFSEFLDVAGLLSEITDPESFLKDLLNSVP
- Kd: 1.47 µM

Reference: article PMC10873205 (2024)
